Measurements reported in US20250000946A1 (WUXI BIOLOGICS IRELAND, published 2025).
Read-outs that look alike come from different tables or passages of the source.

Experiments:
[1] = target: T1, Human IL-2Rβ/γ (intermediate affinity IL-2 receptor) (human, UniProt P14784 27-551; P31785 23-369); experiment: FACS, HH cells
T1 construct: whole, on cells; also called IL-2Rβ/γc; IL-2Rβ (CD122) and γ (CD132)
T1 sequence (looked up) 1: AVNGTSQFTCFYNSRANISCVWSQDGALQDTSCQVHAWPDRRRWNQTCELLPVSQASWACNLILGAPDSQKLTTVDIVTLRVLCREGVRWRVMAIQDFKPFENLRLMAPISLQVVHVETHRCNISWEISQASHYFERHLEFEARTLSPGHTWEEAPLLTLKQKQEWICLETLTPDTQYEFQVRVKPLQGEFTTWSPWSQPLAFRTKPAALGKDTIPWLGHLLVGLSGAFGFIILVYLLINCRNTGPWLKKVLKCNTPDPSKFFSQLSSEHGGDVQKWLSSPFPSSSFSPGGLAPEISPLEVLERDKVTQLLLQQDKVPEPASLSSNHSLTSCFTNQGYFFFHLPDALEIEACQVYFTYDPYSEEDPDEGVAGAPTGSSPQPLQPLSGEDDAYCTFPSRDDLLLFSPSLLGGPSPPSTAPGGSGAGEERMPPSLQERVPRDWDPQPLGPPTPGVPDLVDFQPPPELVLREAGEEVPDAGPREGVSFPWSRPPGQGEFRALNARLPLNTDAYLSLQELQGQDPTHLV
T1 sequence (looked up) 2: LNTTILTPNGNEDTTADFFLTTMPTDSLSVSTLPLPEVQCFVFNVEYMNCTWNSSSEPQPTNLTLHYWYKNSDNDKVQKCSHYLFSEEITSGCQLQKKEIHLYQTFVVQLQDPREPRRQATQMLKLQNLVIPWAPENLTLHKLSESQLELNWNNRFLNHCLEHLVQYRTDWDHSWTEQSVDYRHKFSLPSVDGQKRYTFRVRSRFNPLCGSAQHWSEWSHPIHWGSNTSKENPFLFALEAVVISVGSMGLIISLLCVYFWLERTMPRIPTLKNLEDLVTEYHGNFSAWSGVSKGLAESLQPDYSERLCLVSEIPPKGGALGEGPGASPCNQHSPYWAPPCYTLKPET
Outline: (§1)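 HH (IL-2Rβ/γ), MJ20 and NK92 (IL-2Rα/β/γ) cells incubated with IL-2/Fc fusion proteins at indicated concentrations, 30 min at 4° C to avoid internalization. Bound protein detected with PE-anti-human Fc, 30 min at 4° C; median fluorescence intensity read by FACS.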

[2] = target: T1, Human IL-2Rβ/γ (intermediate affinity …); experiment: cell-based or functional assay
[3] = target: T2, Human IL-2Rα/β/γ complex (high affinity IL-2 receptor) (human, UniProt P01589 22-272; P14784 27-551; P31785 23-369); experiment: cell-based or functional assay
T2 sequence (looked up) 1: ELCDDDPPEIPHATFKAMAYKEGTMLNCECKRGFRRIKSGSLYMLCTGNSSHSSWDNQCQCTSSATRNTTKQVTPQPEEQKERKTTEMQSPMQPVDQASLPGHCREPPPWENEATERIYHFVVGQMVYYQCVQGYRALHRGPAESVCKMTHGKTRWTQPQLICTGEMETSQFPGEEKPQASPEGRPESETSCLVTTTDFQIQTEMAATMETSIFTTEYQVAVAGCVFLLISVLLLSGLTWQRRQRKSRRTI
T2 sequence (looked up) 2: T1 sequence (looked up) 1
T2 sequence (looked up) 3: T1 sequence (looked up) 2

[4] = target: T2, Human IL-2Rα/β/γ complex (high affinity …); experiment: FACS, NK92 cells
Outline: as §1

[5] = target: T1, Human IL-2Rβ/γ (intermediate affinity …); experiment: cell-based or functional assay; remark: listed apart in the source
[6] = target: T2, Human IL-2Rα/β/γ complex (high affinity …); experiment: cell-based or functional assay; remark: listed apart in the source
[7] = target: T1, Human IL-2Rβ/γ (intermediate affinity …); experiment: FACS, HH cells; EC50 fold vs T2U0.E44-1
Description: (§2) Human cutaneous T cell lymphoma HH cells, malignant non-Hodgkin's lymphoma NK92 cells and cutaneous T cell lymphoma MJ20 cells were used for binding assay. They both constitutively express IL-2Rβ (CD122) and […] (CD132), and NK92 and MJ20 also expresses IL-2Rα (CD25). HH, NK92 and MJ20 cells were cultured following ATCC guidance, then transferred to a 96-plate for binding analysis. Cells were incubated with IL-2/Fc fusion proteins at the indicated concentrations for 30 min at 4° C. to avoid internalization. Binding was detected by 2nd antibody of PE-anti-human Fc at 4° C. for another 30 min. The median fluorescence intensity (MFI) on HH and NK92 cells was measured using FACS.

[8] = target: T2, Human IL-2Rα/β/γ complex (high affinity …); experiment: FACS, NK92 cells; EC50 fold vs T2U0.E44-1
Outline: as §1

[9] = target: T1, Human IL-2Rβ/γ (intermediate affinity …); experiment: FACS, HH cells; remark: listed apart in the source
Description: as §2

[10] = target: T1, Human IL-2Rβ/γ (intermediate affinity …); experiment: FACS, HH cells; EC50 fold vs T2U0.E44-1; remark: listed apart in the source
Outline: as §1

[11] = target: T3, W3XX115-T2U0.E44-6.uIgG4V322 (human, UniProt P60568 21-149); experiment: SPR Biacore 8K; variant captured via anti-human Fc, IL-2Rα ECD-His injected; steady state
T3 construct: IL-2 del STLT; E44 format, IgG4 FALA; IL-2 part tied by the design 'Del STLT'; not shown: IgG4 hinge-Fc with FALA (uIgG4V322), no linker
Description: IL-2 variants binding affinity to IL-2 receptor were detected by SPR using Biacore 8K. For IL-2Rα binding assay, each variant was captured on anti-human Fc immobilized CM5 sensor chip (cytiva). W3XX115-hPro1.ECD.His at different concentrations were injected over the sensor chip at a flow rate of 30 uL/min for an association phase of 60 s, followed by 90 s dissociation. The chip was then regenerated by 10 mM Glycine-HCl pH1.5 after each binding cycle. For IL-2Rγ binding assay, IL-2 variants were mixed with W369-hPro2.ECD.His as 1:1 before assay, were detected by SPR using Biacore 8K. W3XX115-hPro1.ECD.His was captured on anti-His immobilized CM5 sensor chip (cytiva). The mixture were injected over the sensor chip as described above. The sensorgrams of blank surface and buffer channel were subtracted from the test sensorgrams. The experimental data was fitted by steady state affinity model. Molecular weight of W3XX115-hPro1.ECD.His or W369-hPro1.ECD.His was used to calculate the molar concentration of analyte.
For T3U0.E44-1 and T2U0.E44-33, no binding to IL-2Rα was detected.

[12] = target: T3, W3XX115-T2U0.E44-6.uIgG4V322; experiment: SPR Biacore 8K; set-up for IL-2Rβ not described
[13] = target: T3, W3XX115-T2U0.E44-6.uIgG4V322; experiment: SPR (Biacore 8K): variant pre-mixed 1:1 with human IL-2Rβ ECD (W369-hPro2.ECD.His), injected over immobilised human IL-2Rγc [panel 2 of the upper row]

B1: W3XX115-T3U0.E44-1.uIgG4V1 (Fc fusion)
chain: APTSSSTKKTQLQLEHLLLDLQMILNGINNYKNPKLTRMLTAKFAMPKKATELKHLQCLEEELKPLEEVLNGAQSKNFHLRPRDLISNINVIVLELKGSETTFMCEYADETATIVEFLNRWITFCQSIISTLTESKYGPPCPPCPAPEFLGGPSVFLFPPKPKDTLMISRTPEVTCVVVDVSQEDPEVQFNWYVDGVEVHNAKTKPREEQFNSTYRVVSVLTVLHQDWLNGKEYKCKVSNKGLPSSIEKTISKAKGQPREPQVYTLPPCQEEMTKNQVSLWCLVKGFYPSDIAVEWESNGQPENNYKTTPPVLDSDGSFFLYSRLTVDKSRWQEGNVFSCSVMHEALHNHYTQKSLSLSLG
heavy: EIQLQQSGPELVKPGASVKVSCKASGYSFTDYNMYWVKQSHGESLEWIGYIDPYNGGTRYNQKFKGKATLTVDKSSSTAFMHLNSLTSEDSAVYYCARNGHWDGAWFAYWGQGTLVTVSAASTKGPSVFPLAPCSRSTSESTAALGCLVKDYFPEPVTVSWNSGALTSGVHTFPAVLQSSGLYSLSSVVTVPSSSLGTKTYTCNVDHKPSNTKVDKRVESKYGPPCPPCPAPEFLGGPSVFLFPPKPKDTLMISRTPEVTCVVVDVSQEDPEVQFNWYVDGVEVHNAKTKPREEQFNSTYRVVSVLTVLHQDWLNGKEYKCKVSNKGLPSSIEKTISKAKGQPREPQVCTLPPSQEEMTKNQVSLSCAVKGFYPSDIAVEWESNGQPENNYKTTPPVLDSDGSFFLVSRLTVDKSRWQEGNVFSCSVMHEALHNHYTQKSLSLSLG
light: DIQMNQSPSSLSASLGDTITITCHASQNINVWLSWYQQKPGNIPKLLIYKASNLHTGVPSRFSGSRSGTGFTLTISSLQPEDIATYYCHQGQSYPFTFGSGTKLEIKRTVAAPSVFIFPPSDEQLKSGTASVVCLLNNFYPREAKVQWKVDNALQSGNSQESVTEQDSKDSTYSLSSTLTLSKADYEKHKVYACEVTHQGLSSPVTKSFNRGEC
notes: E44 format, IgG4
[1]
  EC50: 72.9 nM
[2]
  Human CD8+ T Potency EC50 (STAT5 phosphorylation): 7.14 nM
  Human CD8+ T Potency reduction: 0.69 fold
[3]
  Human Treg Potency EC50 (STAT5 phosphorylation): 3.52 nM
  Human Treg Potency reduction: 296 fold
[4]
  EC50: 145 nM
[5]
  Potency in human CD8+ T EC50: 7.53 nM
  Potency reduction (CD8+ T): 0.74 fold
[6]
  Potency in human Treg EC50: 2.48 nM
  Potency reduction (Treg): 652 fold
[7]
  Affinity reduction: 1 fold
[8]
  Affinity reduction: 20.7 fold
[9]
  EC50: 24.5 nM
[10]
  Affinity reduction: 1 fold

B2: W3XX115-hPro1.ECD.His, IL2Rα ECD (receptor)
chain: ELCDDDPPEIPHATFKAMAYKEGTMLNCECKRGFRRIKSGSLYMLCTGNSSHSSWDNQCQCTSSATRNTTKQVTPQPEEQKERKTTEMQSPMQPVDQASLPGHCREPPPWENEATERIYHFVVGQMVYYQCVQGYRALHRGPAESVCKMTHGKTRWTQPQLICTGEMETSQFPGEEKPQASPEGRPESETSCHHHHHH
notes: Entry includes the C-terminal 6xHis tag; also called CD25
[11]
  Kd: 98.2 nM

B3: W369-hPro2.ECD.His, IL2Rβ ECD (receptor)
chain: AVNGTSQFTCFYNSRANISCVWSQDGALQDTSCQVHAWPDRRRWNQTCELLPVSQASWACNLILGAPDSQKLTTVDIVTLRVLCREGVRWRVMAIQDFKPFENLRLMAPISLQVVHVETHRCNISWEISQASHYFERHLEFEARTLSPGHTWEEAPLLTLKQKQEWICLETLTPDTQYEFQVRVKPLQGEFTTWSPWSQPLAFRTKPAALGKDLEGGGGSGGGGHHHHHH
notes: Entry includes linker and C-terminal 6xHis tag; also called CD122
[12]
  Kd: 1010 nM

B4: W369-hPro1.ECD.His, IL-2Rγ ECD (receptor)
chain: LNTTILTPNGNEDTTADFFLTTMPTDSLSVSTLPLPEVQCFVFNVEYMNCTWNSSSEPQPTNLTLHYWYKNSDNDKVQKCSHYLFSEEITSGCQLQKKEIHLYQTFVVQLQDPREPRRQATQMLKLQNLVIPWAPENLTLHKLSESQLELNWNNRFLNHCLEHLVQYRTDWDHSWTEQSVDYRHKFSLPSVDGQKRYTFRVRSRFNPLCGSAQHWSEWSHPIHWGSNTSKENLEGGGGSGGGGHHHHHH
notes: Entry includes linker and C-terminal 6xHis tag; also called IL-2Rγc; CD132
[13]
  binding result: binds
